Test results taken from US20230331828A1 (published 2023).
Where a chain is given by its changes, count along the chain named.

B1: h2731 (antibody, V domains shown)
VH: EVQLLESGGGLVQPGGSLRLSCAASGFTFSNYGMSWVRQAPGKGLEWVASIRSGSGRTYYSDNVKGRFTISRDNSKNTLYLQMNSLRAEDTAVYYCVRYDHYSGSSDYWGQGTLVTVSS
VL: DVVMTQSPLSLPVTLGEPASISCKSSQSLLDYDGKTYLNWLLQKPGQSPQRLIYRVTNRDTGVPDRFSGSGSGTDFTLKISRVEAEDVGVYYCWQGTHFPRSFGQGTKVEIK
B2: h2726 (antibody, V domains shown)
VH: B1 VH
VL: B1 VL with L15P, R55K, T57S, T61S, S102T
B3: h2931 (antibody, V domains shown)
VH: B1 VH with Y32F, I51V, S103T, S105T
VL: B1 VL
B4: h2831 (antibody, V domains shown)
VH: B1 VH with Y32F, I51V, S105T
VL: B1 VL

Experiments:
[1] = biological target: aggregated Aβ42 (heterogeneous Aβ 42 aggregate mixture); test: competition ELISA; FIG 20A
[2] = biological target: aggregated Aβ42 (heterogeneous Aβ 42 aggregate mixture); test: competition ELISA; FIG 5A; competition with HBP biotin
[3] = biological target: aggregated Aβ42 (heterogeneous Aβ 42 aggregate mixture); test: competition ELISA; FIG 20B
[4] = biological target: aggregated Aβ42 (heterogeneous Aβ 42 aggregate mixture); test: competition ELISA; FIG 5B; competition with HBP biotin

aggregated Aβ42 (heterogeneous Aβ 42 aggregate mixture), sequence (P05067 672-713): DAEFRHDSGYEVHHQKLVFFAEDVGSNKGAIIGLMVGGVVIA

Row | Binder | IC50 [1] [µg/mL] | IC50 [2] [µg/mL] | IC50 [3] [µg/mL] | IC50 [4] [µg/mL]
1 | B1 | 5 | 4.76 | – | –
2 | B2 | – | – | 9 | 8.41
3 | B3 | – | 6.27 | – | –
4 | B4 | – | – | 9.9 | 9.02
